Laboratory results taken from publication PMC4271737.

What was measured:
[1] = target: human angiotensin II type 1 receptor with a C-terminal GFP-H10 tag (AT1R-GFP-H10) (human) (UniProt P30556); test: radioligand binding; non-solubilised membranes (briefly sonicated cells); 0.5 nM [125I]Sar1 with 100 nM unlabelled Sar1; bound and free ligand separated by filtration through 96-well glass fibre filter plates without polyethyleneimine; background from parental or uninfected cells
[2] = target: human angiotensin II type 1 receptor with a C-terminal decahistidine tag (AT1R-H10) (human) (UniProt P30556); test: as above

[^125I]sar^1-Ile^8-angiotensin II (peptide)
specific binding in membranes (dpm, set to 100%) [1]: 12000 dpm | specific binding in membranes (dpm, set to 100%) [2]: 1400 dpm
